According to patent publication US20080021198:

B1: PME S156A mutant (protein)
chain: MSALEKSMHLGRLPSRPPLPGSGGSQSGAKMRMGPGRKRDFSPVPWSQYFESMEDVEVENETGKDTFRVYKSGSEGPVLLLLHGGGHSALSWAVFTAAIISRVQCRIVALDLRSHGETKVKNPEDLSAETMAKDVGNVVEAMYGDLPPPIMLIGHAMGGAIAVHTASSNLVPSLLGLCMIDVVEGTAMDALNSMQNFLRGRPKTFKSLENAIEWSVKSGQIRNLESARVSMVGQVKQCEGITSPEGSKSIVEGIIEEEEEDEEGSESISKRKKEDDMETKKDHPYTWRIELAKTEKYWDGWFRGLSNLFLSCPIPKLLLLAGVDRLDKDLTIGQMQGKFQMQVLPQCGHAVHEDAPDKVAEAVATFLIRHRFAEPIGGFQCVFPGC
B2: PME S156T mutant (protein)
chain: MSALEKSMHLGRLPSRPPLPGSGGSQSGAKMRMGPGRKRDFSPVPWSQYFESMEDVEVENETGKDTFRVYKSGSEGPVLLLLHGGGHSALSWAVFTAAIISRVQCRIVALDLRSHGETKVKNPEDLSAETMAKDVGNVVEAMYGDLPPPIMLIGHTMGGAIAVHTASSNLVPSLLGLCMIDVVEGTAMDALNSMQNFLRGRPKTFKSLENAIEWSVKSGQIRNLESARVSMVGQVKQCEGITSPEGSKSIVEGIIEEEEEDEEGSESISKRKKEDDMETKKDHPYTWRIELAKTEKYWDGWFRGLSNLFLSCPIPKLLLLAGVDRLDKDLTIGQMQGKFQMQVLPQCGHAVHEDAPDKVAEAVATFLIRHRFAEPIGGFQCVFPGC
B3: PME S156C mutant (protein)
chain: MSALEKSMHLGRLPSRPPLPGSGGSQSGAKMRMGPGRKRDFSPVPWSQYFESMEDVEVENETGKDTFRVYKSGSEGPVLLLLHGGGHSALSWAVFTAAIISRVQCRIVALDLRSHGETKVKNPEDLSAETMAKDVGNVVEAMYGDLPPPIMLIGHCMGGAIAVHTASSNLVPSLLGLCMIDVVEGTAMDALNSMQNFLRGRPKTFKSLENAIEWSVKSGQIRNLESARVSMVGQVKQCEGITSPEGSKSIVEGIIEEEEEDEEGSESISKRKKEDDMETKKDHPYTWRIELAKTEKYWDGWFRGLSNLFLSCPIPKLLLLAGVDRLDKDLTIGQMQGKFQMQVLPQCGHAVHEDAPDKVAEAVATFLIRHRFAEPIGGFQCVFPGC
B4: trypsin-resistant structural core of PME (protein)
chain 1: RDFSPVPWSQYFESMEDVEVENETGKDTFRVYKSGSEGPVLLLLHGGGHSALSWAVFTAAIISRVQCRIVALDLRSHGETKVKNPEDLSAETMAKDVGNVVEAMYGDLPPPIMLIGHSMGGAIAVHTASSNLVPSLLGLCMIDVVEGTAMDALNSMQNFLRGRPKTFKSLENAIEWSVKSGQIRNLESARVSMVGQVKQCEGITSPEGSK
chain 2: KEDDMETKKDHPYTWRIELAKTEKYWDGWFRGLSNLFLSCPIPKLLLLAGVDRLDKDLTIGQMQGKFQMQVLPQCGHAVHEDAPDKVAEAVATFLIRHRFAEPIGGFQCVFPGC
B5: full-length PP2A methyl esterase (PME) (protein)
chain: MSALEKSMHLGRLPSRPPLPGSGGSQSGAKMRMGPGRKRDFSPVPWSQYFESMEDVEVENETGKDTFRVYKSGSEGPVLLLLHGGGHSALSWAVFTAAIISRVQCRIVALDLRSHGETKVKNPEDLSAETMAKDVGNVVEAMYGDLPPPIMLIGHSMGGAIAVHTASSNLVPSLLGLCMIDVVEGTAMDALNSMQNFLRGRPKTFKSLENAIEWSVKSGQIRNLESARVSMVGQVKQCEGITSPEGSKSIVEGIIEEEEEDEEGSESISKRKKEDDMETKKDHPYTWRIELAKTEKYWDGWFRGLSNLFLSCPIPKLLLLAGVDRLDKDLTIGQMQGKFQMQVLPQCGHAVHEDAPDKVAEAVATFLIRHRFAEPIGGFQCVFPGC

Molecular target: methylated PP2A A-C hetero-dimer (bovine brain, methylated in vitro with PMT and H^3-SAM), Q32PI5
Sequence (Q32PI5 2-589, chain 1 of 2): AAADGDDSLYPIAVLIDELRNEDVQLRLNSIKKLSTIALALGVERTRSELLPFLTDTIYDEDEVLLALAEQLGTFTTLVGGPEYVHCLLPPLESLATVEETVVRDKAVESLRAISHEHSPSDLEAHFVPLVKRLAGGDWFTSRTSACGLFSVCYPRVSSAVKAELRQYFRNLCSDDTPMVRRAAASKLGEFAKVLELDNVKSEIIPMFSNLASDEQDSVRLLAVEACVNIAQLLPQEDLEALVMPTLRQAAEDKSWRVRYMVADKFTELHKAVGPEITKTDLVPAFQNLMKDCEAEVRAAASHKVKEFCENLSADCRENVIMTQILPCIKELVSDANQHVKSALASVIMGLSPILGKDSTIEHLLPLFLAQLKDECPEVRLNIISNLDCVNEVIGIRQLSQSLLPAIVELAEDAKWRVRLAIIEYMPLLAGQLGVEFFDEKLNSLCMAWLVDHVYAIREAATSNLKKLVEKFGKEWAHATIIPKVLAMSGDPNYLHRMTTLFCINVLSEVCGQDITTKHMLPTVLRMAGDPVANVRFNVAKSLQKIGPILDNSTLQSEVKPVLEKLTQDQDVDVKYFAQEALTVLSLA
Sequence (chain, as listed by the source, chain 2 of 2): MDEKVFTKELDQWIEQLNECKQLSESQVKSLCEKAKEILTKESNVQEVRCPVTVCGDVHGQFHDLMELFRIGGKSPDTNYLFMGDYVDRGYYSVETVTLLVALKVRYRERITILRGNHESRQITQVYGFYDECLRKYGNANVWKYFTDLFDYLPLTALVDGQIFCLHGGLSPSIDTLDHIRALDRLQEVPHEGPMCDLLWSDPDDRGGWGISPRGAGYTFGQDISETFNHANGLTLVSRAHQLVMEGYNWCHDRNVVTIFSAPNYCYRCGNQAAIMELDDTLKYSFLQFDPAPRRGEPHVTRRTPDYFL

Protein | enzyme activity (methyl esterase, release of H^3-methanol) | methyl esterase activity (release of H^3-methanol)
B1 | mutation of Ser156 to alanine completely abolished the enzyme activity | 
B2 | mutation to threonine and cysteine retained 10% and 40% of the enzyme activity, respectively | 
B3 | mutation to threonine and cysteine retained 10% and 40% of the enzyme activity, respectively | 
B4 |  | the PME core exhibits a similar methyl esterase activity to that of the full-length PME
B5 |  | the PME core exhibits a similar methyl esterase activity to that of the full-length PME
